This passage reports binding result and Kd results from article PMC3173232.

One may read the Kd as a measure of binding affinity in units of concentration.

In one data set the target is XLF FL;XRCC4(1-140) (Homo sapiens;Homo sapiens, UniProt Q9H9Q4;Q13426 1-299;1-140, |). The data set is described as follows: SAXS titration.
Another data set concerns the target XLF(1-224);XRCC4(1-140) (Homo sapiens;Homo sapiens, UniProt Q9H9Q4;Q13426 1-224;1-140, |). The experiment in a line: SAXS titration.
Another data set addresses XLF(1-248) (Homo sapiens, UniProt Q9H9Q4 1-248). The experiment in a line: tryptophan fluorescence quenching.
The next data set has as its target XRCC4 FL (Homo sapiens, UniProt Q13426 1-336). The data set is described as follows: tryptophan fluorescence quenching.
The next data set addresses XLF FL (Homo sapiens, UniProt Q9H9Q4 1-299). The experiment in a line: tryptophan fluorescence quenching.
Data set [1] concerns the target Ku70/80 heterodimer;XLF FL;XRCC4(1-140) (Homo sapiens (HeLa);Homo sapiens;Homo …, UniProt P12956;P13010;Q9H9Q4;Q13426 2-609;2-732;1-299;1-140, ||). The experiment in a line: SEC co-elution and SAXS.
A further data set concerns the target XRCC4 FL;XLF(1-248) (Homo sapiens;Homo sapiens, UniProt Q13426;Q9H9Q4 1-336;1-248, |). The data set is described as follows: tryptophan fluorescence quenching.

Sequence of XLF(1-248) (Q9H9Q4 1-248): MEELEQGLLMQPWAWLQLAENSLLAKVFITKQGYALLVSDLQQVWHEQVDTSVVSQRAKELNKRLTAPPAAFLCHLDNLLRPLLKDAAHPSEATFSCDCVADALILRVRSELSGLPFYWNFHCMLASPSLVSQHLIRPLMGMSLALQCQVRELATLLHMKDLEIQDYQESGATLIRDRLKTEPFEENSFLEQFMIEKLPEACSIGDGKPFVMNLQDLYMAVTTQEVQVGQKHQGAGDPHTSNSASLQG
Sequence of XRCC4 FL;XLF(1-248) (Q13426 whole entry, chain 1 of 2): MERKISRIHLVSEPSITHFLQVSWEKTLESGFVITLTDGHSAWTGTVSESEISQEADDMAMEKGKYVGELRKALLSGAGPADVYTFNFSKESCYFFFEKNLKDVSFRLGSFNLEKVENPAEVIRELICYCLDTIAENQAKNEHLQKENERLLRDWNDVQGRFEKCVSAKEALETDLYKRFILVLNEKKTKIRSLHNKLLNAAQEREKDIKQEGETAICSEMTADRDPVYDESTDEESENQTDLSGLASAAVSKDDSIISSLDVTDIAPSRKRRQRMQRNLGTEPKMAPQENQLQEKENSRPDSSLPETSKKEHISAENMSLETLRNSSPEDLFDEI
Sequence of XRCC4 FL;XLF(1-248) (Q9H9Q4 1-248, chain 2 of 2): as the sequence (Q9H9Q4 1-248) above
Sequence of XRCC4 FL (Q13426 whole entry): as the sequence (Q13426 whole entry, chain 1 of 2) above
Sequence of XLF(1-224);XRCC4(1-140) (Q9H9Q4 1-224, chain 1 of 2): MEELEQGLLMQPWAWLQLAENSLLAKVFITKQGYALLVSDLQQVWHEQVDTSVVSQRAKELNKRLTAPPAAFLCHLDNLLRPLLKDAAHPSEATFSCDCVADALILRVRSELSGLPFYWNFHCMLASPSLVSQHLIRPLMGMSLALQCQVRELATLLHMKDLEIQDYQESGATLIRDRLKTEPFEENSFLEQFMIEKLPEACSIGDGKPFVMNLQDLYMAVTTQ
Sequence of XLF(1-224);XRCC4(1-140) (Q13426 1-140, chain 2 of 2): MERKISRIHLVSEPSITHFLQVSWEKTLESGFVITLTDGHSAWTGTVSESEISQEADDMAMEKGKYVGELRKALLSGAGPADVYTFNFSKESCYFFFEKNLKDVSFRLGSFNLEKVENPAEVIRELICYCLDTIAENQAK
Sequence of XLF FL (Q9H9Q4 whole entry): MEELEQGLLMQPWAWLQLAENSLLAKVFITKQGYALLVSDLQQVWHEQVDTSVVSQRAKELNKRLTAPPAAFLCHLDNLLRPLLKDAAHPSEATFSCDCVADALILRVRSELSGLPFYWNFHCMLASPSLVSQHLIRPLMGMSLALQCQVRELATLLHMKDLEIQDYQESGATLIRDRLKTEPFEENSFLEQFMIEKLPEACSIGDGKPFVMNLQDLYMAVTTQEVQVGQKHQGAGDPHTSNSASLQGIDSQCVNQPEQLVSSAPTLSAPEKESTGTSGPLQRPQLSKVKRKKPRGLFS
Sequence of XLF FL;XRCC4(1-140) (Q9H9Q4 whole entry, chain 1 of 2): as the sequence (Q9H9Q4 whole entry) above
Sequence of XLF FL;XRCC4(1-140) (Q13426 1-140, chain 2 of 2): as the sequence (Q13426 1-140, chain 2 of 2) above
Sequence of Ku70/80 heterodimer;XLF FL;XRCC4(1-140) (P12956 2-609, chain 1 of 4): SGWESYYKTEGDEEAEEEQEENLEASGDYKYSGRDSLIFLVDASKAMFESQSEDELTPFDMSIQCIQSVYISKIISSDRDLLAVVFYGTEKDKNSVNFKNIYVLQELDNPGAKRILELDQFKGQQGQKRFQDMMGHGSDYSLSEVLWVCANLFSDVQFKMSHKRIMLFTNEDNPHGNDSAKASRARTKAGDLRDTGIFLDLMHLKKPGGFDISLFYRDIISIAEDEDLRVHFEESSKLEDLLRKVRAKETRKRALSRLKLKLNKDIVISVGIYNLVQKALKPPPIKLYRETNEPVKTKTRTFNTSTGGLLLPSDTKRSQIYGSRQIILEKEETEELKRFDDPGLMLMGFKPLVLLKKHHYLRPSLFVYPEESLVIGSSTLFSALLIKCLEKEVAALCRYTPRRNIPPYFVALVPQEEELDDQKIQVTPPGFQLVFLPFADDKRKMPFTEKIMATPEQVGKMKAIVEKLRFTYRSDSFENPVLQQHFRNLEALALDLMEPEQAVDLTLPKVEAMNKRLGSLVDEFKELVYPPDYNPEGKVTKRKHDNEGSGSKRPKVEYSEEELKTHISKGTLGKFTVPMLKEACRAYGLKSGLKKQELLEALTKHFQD
Sequence of Ku70/80 heterodimer;XLF FL;XRCC4(1-140) (P13010 2-732, chain 2 of 4): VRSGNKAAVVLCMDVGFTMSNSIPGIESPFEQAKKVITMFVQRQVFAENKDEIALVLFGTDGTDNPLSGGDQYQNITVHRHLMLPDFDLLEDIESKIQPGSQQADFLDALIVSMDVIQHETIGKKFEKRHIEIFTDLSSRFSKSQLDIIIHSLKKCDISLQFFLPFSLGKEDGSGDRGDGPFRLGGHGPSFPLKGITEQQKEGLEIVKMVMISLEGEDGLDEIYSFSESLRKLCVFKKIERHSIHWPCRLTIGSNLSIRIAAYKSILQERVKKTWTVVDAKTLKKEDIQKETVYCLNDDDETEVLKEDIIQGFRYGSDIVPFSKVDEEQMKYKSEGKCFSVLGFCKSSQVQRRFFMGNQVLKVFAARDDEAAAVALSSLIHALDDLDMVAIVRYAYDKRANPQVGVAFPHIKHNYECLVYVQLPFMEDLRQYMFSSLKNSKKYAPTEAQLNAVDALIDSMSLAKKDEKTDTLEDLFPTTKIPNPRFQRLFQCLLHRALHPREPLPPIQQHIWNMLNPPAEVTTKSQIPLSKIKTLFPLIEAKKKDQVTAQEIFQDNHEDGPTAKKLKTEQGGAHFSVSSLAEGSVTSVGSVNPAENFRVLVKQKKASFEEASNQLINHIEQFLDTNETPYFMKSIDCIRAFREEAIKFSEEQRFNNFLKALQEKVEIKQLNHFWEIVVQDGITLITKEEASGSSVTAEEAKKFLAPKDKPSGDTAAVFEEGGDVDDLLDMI
Sequence of Ku70/80 heterodimer;XLF FL;XRCC4(1-140) (Q9H9Q4 whole entry, chain 3 of 4): as the sequence (Q9H9Q4 whole entry) above
Sequence of Ku70/80 heterodimer;XLF FL;XRCC4(1-140) (Q13426 1-140, chain 4 of 4): as the sequence (Q13426 1-140, chain 2 of 2) above

B1: 40-bp DNA (dsDNA)
DNA 1: GGATACACAACAGACCGCAACACTCAGATTACTTTTCGCC
DNA 2: GGCGAAAAGTAATCTGAGTGTTGCGGTCTGTTGTGTATCC
As to B1, the binding result (in the data set with XLF FL;XRCC4(1-140); with XLF(1-224);XRCC4(1-140); in data set [1]) was “binds” each time. Besides, the Kd with XLF(1-248) was 2.9 ± 0.2 µM; with XRCC4 FL, 0.95 ± 0.05 µM; in the data set with XLF FL it was 1.6 ± 0.1 µM; with XRCC4 FL;XLF(1-248), 0.7 ± 0.05 µM.
